Each block holds one binder with its values, some of them ahead of it.
Assays:
[1] = target: T1, Native proenzyme human C1s (Comptech A103) (human, UniProt P09871 16-688); test: SPR (BIACORE T200, 37 degrees C, pH 7.4), antibody captured by protein A/G, C1s 50 nM
T1 construct: mature; Bought native protein; also called native human C1s Proenzyme; native human C1s proenzyme protein (CompTech)
T1 sequence (looked up): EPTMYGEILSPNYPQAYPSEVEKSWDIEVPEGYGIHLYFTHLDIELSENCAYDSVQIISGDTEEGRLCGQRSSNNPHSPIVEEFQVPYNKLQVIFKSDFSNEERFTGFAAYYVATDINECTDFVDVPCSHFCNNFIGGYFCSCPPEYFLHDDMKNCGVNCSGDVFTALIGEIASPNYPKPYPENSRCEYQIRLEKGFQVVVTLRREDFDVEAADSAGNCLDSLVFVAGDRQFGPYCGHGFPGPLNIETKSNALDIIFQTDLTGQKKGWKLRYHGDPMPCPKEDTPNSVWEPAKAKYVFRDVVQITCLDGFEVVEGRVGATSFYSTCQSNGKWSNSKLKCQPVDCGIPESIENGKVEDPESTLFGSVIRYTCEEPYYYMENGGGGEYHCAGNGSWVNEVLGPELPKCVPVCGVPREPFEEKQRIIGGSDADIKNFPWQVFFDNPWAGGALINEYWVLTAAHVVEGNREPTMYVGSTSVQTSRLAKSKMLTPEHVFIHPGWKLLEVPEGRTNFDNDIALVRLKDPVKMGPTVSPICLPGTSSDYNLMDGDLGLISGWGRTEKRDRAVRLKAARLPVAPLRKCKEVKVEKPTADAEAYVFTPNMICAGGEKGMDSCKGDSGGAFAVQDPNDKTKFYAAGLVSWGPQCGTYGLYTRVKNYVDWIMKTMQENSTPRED
Experimental: The binding specificities of the six C1s CUB1-EGF-CUB2 binders were determined at 37 degrees C. using BIACORE® T200 instrument (GE Healthcare). Recombinant Protein A/G (Pierce) was immobilized onto all flow cells of a CM4 sensor chip using an amine coupling kit (GE Healthcare). Antibodies and analytes were prepared in 7(+) buffer (20 mM ACES, 150 mM NaCl, 1.2 mM CaCl₂, 0.05% Tween 20, 0.005% NaN₃, pH 7.4). Each antibody was captured onto the sensor surface by protein A/G. Antibody capture levels were aimed at 100 resonance unit (RU). Native proenzyme human C1s (Comptech A103) (at 50 nM as a monomer) or recombinant human C1s CCP1-CCP2-SP-His (at 100 nM as a monomer) was injected, followed by dissociation. Sensor surface was regenerated each cycle with 10 mM Glycine-HCl pH 1.5. The six C1s CUB1-EGF-CUB2 binders bound to the native proenzyme human C1s, but not recombinant human C1s CCP1-CCP2-SP-His, which is a truncated protein lacking the CUB1-EGF-CUB2 domain.

[2] = target: T2, recombinant human C1s CCP1-CCP2-SP-His (human, UniProt P09871 292-688); test: SPR (BIACORE T200, 37 degrees C, pH 7.4, 1.2 mM CaCl2), antibody captured by protein A/G
T2 construct: Truncated protein lacking the CUB1-EGF-CUB2 domain; also called human C1s CCP1-CCP2-SP M292-D688
T2 sequence: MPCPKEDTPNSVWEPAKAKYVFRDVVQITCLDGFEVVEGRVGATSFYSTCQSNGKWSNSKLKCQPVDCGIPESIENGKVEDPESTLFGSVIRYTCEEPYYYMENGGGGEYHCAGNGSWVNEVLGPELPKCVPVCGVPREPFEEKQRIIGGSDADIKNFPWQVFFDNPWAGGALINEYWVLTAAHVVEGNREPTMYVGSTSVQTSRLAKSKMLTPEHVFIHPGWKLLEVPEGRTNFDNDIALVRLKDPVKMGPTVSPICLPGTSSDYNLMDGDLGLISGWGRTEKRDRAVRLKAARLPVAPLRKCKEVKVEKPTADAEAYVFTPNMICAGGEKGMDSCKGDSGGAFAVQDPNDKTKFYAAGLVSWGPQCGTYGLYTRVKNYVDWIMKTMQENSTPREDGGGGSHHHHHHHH

binding result [1]: binds | binding result [2]: no binding (tested: 100 nM)
B4: COS0547gg-SG1148 (antibody, human IgG1, kappa, V domains shown)
VH: QSLEESGGRLVTPGTPLTLTCTASGFSLSSYHMDWVRQAPGKGLEWIGIITYTGDTYYATWAKGRFTISKTSSTTVDLKMASLTTEDTATYFCARRQYDAYNVWGPGTLVTVSS
VL: AYDMTQTPASVEVAVGGTVTIKCQASQSINNYLAWYQQKPGQPPKLLIYYASTLASGVPSRFKGSRSGTEFTLTISGVECADAATYYCQHGYYTSSNIDSVFGGGTKVEIKR

binding result [1]: binds | binding result [2]: no binding (tested: 100 nM)
B5: COS0637cc-SG1148 (antibody, human IgG1, kappa, V domains shown)
VH: QSLEESGGRLVTPGTPLTLTCTASGFSLSAYAMNWVRQAPGKGLEWIGLIYGSGSTFYASWAKGRFTISKTSTTVDLKMTSLTTEDTATYFCARGRSVNYNSDFKLWGPGTLVTVSS
VL: QVLTQTPSSVSAAVGGTVTINCQASQSLHDKKNLAWYQHKPGQRPNLLIYGASTLESGVPSRFKGSGSGTEYTLTISDLECDDAAAYYCQGEFSCSSADCNTFGGGTKVEIKR

The next lines start with the binder.

B1: COS0499ee-SG1148 (antibody, human IgG1, kappa, V domains shown)
VH: QSLEESGGRLVTPGTPLTLTCTASGFSLSNYNMAWVRQAPGKGLEWIGIIETTTNTYYARWARGRFTISKTSSTTVDLQIASPTTEDTATYFCGRRVSNSHDLWGPGTLVTVSS
VL: AYDMTQTPASVSAAVGGTVTINCQASQTIGGWCAWYQQKPGQPPKLLIYKASTLASGVSSRFKGSGSGTEFALTISDLECDDAATYYCQHGYYTSSTIENTFGGGTKVEIKR
notes: also called COS499; COS499ee(-SG1148)
binding result [1]: binds | binding result [2]: no binding (tested: 100 nM)

B2: COS0631gg-SG1148 (antibody, human IgG1, kappa, V domains shown)
VH: QSVEESGGRLVTPGTPLTLTCTVSGFSLSRYSMGWVRQAPGKGLEWIGIIYADGGAYYASWAKGRFTISKTSTTMDLKVTSPTTEDTATYFCARGQFINSNEFFNPWGPGTLVTVSS
VL: QVLTQTASSVSAVVGGTVTINCQASQSLHNNKNLAWYQQKPGQPPRLLIYYASTLASGVSSRFKGSGSGTQFTLTISDLECDDAATYYCAGEFSCSNGDCNAFGGGTKVEIKR
binding result [1]: binds | binding result [2]: no binding (tested: 100 nM)

B3: COS0448oo-SG1148 (antibody, human IgG1, kappa, V domains shown)
VH: QSVEESGGRLVTPGTPLTLTCTVSGFSLSNYGMIWVRQAPGEGLEYIGFVSGSGSAYYANWVKGRFTISKTSTTVDLKMTSLTTEDTATYFCARGAYNTDSYSYSLYYGMDLWGPGTLVTVSS
VL: QIVMTQTPASVEVAVGGTVTIKCQASQSIYSYLSWYQQKPGQPPKLLIYGASTLASGVPSRFKGSRSGTEFTLTISDLECADAATYYCQSNYATTTTYGTFGGGTKVEIKR
notes: Rabbit B-cell derived variable regions; also called COS448; COS44800(-SG1148)
binding result [1]: binds | binding result [2]: no binding (tested: 100 nM)

— patent US20210198347A1 (Chugai, published 2021)
